Test results reported in patent US10052415B2, “Tropoelastin for promoting endothelial cell adhesion or migration” (University of Utah Research Foundation, priority 2005, dated 2018).
Entries after “also recorded” stand apart in the source; their conditions may differ.

How the values were obtained:
[1] = system: human aortic endothelial cells (HuAEC); assay: Boyden chamber migration assay, HuAEC; type: cell-based; conditions: FIG. 3
Protocol: Migration of HuAECs to BSA, fibronectin, and recombinant tropoelastin was measured.
We assayed the hexamer VGVAPG (SEQ ID No. 5). This hexameric sequence is repeated multiple times within the full length tropoelastin protein. […] We additionally assayed a 17 residue C-terminal fragment of the tropoelastin protein. This 17 amino acid residue is depicted in SEQ ID NO: 6 (IFPGGACLGKACGRKRK).
Briefly, 16 h before the assay, 70% confluent 75 cm^2 flasks of human melanoma A2058 cell (ATCC, passage 3-12) or human aortic endothelial cells (HAEC; Cambrex, passage 4-7) were kept in basal media (dMEM+0.1% BSA, or EBM-2+1% FCS, respectively). Cells were lifted with 0.25% Trypsin/1 mM EDTA, diluted in 0.5% BSA (dMEM) and washed 3 times in basal media (dMEM+0.1% BSA) or (EBM-2+0.1% FCS,) and recovered in suspension at working density (2×10^6/ml for A2058 or 1.5×10^6 HAEC) for 1 h at 37° C. (5% CO2). For migration-inhibition assays, the cells were preincubated during the recovery period for 30 minutes in 25 μg/ml anti-integrin antibodies (Chemicon, Temecula, Calif.) or control IgG (Jackson ImmunoResearch, Inc.). All migration assays were performed in triplicate in a 48-well Boyden chamber apparatus (NeuroProbe, Cabin John, Md.). The recovered cells were added to the bottom chambers in a volume of 30 μl. The wells were overlayed with an 8 μm-pore polycarbonate membrane (NeuroProbe, Cabin John, Md.) and coated with 100 μg/ml Rat tail collagen (Trevigen, Gaithersburg, Md.) for A2058 cells or acetylated 1% gelatin from porcine skin (Sigma, St. Louis, Mo.) for HAEC. The apparatus was assembled and stored inverted at 37° C. (5 CO2) for a 2 h adhesion-period. The apparatus was re-inverted and 52 μl of the chemoattractants, 10 mg/ml Fibronectin, 200 ng/ml Tropoelastin, 10 μM elastin-derived peptides; VGVAPG (SEQ ID No. 5), and IFPGGACLGKACGRKRK (SEQ ID No. 6 (Cterm peptide) or 0.1% BSA/dMEM (diluent, random migration control), were added to the upper chambers and the migration was allowed to proceed for 2 h in a humidified incubator at 37° C. (5% CO2). The membranes were then removed, fixed in methanol, stained with a Hema 3 stain set (Fisher Scientific, Pittsburgh, Pa.) and mounted migrated-side down to a 50×75 mm glass slide. Before 90% mounting medium (in xylenes) was applied, the non-migrated cells were removed from the exposed, non-migrated face of the membrane with a moistened swab. Readings represent the number of cells migrating through the membrane (the sum of two high power X 20 fields/well, averaged for each sextuplicate-well set).

[2] = system: endothelial progenitor cells; assay: Cell spreading on coated stainless steel disks (phalloidin/DAPI staining); type: cell-based, human; conditions: Triton X-100 permeabilized, phalloidin and DAPI staining
Source text: We also examined the appearance of the adherent endothelial cells.
Cell spreading was examined by permeabilizing the endothelial cells that had adhered to the coated metal surfaces with Triton X-100 and staining with phalloidin to highlight the actin cytoskeleton and DAPI to mark cell nuclei. […] Thus, stainless steel surfaces coated with either tropoelastin or anti-CD34 antibody would likely endothelialize more rapidly than would similar bare metal surfaces when intravascularly placed.
Adhesion assays on 6 mm stainless steel disks (Orbus Medical Technologies, Ft Lauderdale, Fla.) pre-coated with anti-CD34 antibody, tropoelastin, coating vehicle, or uncoated metal were performed in a similar fashion as described above, with the following modifications: 48-well plates were used to hold the disks during the assay period to facilitate manipulation of the disks and twice the volume of cell suspension was applied (200 μl/well). Exemplary amounts of total protein covalently attached to each disk were approximately 100 micrograms. Post-adhesion, the wells were washed twice in dPBS, using a swirling motion to dislodge non-specifically adhered cells. […]

[3] = system: A2058 human melanoma cells; assay: Cell adhesion assay, A2058 cells; type: cell-based
Protocol: A2058 cells were assayed for adherence to substrates coated with BSA (control), fibronectin, tropoelastin, or a bioactive fragment of tropoelastin corresponding to a single repeat of the hexameric sequence VGVAPG (SEQ ID No. 5). In comparison to adherence to BSA, A2058 cells adhered to substrates coated with fibronectin tropoelastin, or a bioactive fragment of tropoelastin.
Cells were harvested with 0.25% trypsin/1 mM EDTA, washed three times in adhesion buffer (0.5% BSA in basal medium), suspended at a working density of 5×10^5/ml in adhesion buffer, and then allowed to recover for 1 h at 37° C. (5% CO2). For integrin-blocking assays, 25 μg/ml anti-integrin antibodies (Chemicon, Temecula, Calif.) or control IgG (Jackson ImmunoResearch Laboratories, Inc, West Grove, Pa.) were added to the cell suspension during the recovery period. During the cell recovery, the coated 96-well plates were washed twice in dPBS and blocked for 1 h at 25° C. in 5.0% BSA (dPBS). The blocking solution was removed, and the wells were washed twice in dPBS. Recovered cells were added to the coated wells in a volume of 100 μl per well and placed at 37° C. for 30 minutes (5% CO2). Following this incubation, the assay plate was inverted and assay wells were washed twice with 100 μl dPBS to remove non-specifically adhered cells. The wells were then fixed in Zamboni fixative, stained with Gill 1 hematoxylin, and overlayed with 80% glycerol. The assay was imaged at 100× magnification, capturing 3 random fields/well on a Zeiss Axiovert 200 inverted microscope equipped with a Zeiss Axiocam digital camera. Readings represent the number of adherent cells/well (average six high powered 100× fields, three taken from each of two separate wells).

B1: tropoelastin: recombinant human tropoelastin lacking native signal sequence, 10× His tag and Factor Xa site on N-terminus, 706 amino acid residues (SEQ ID NO: 4) (protein, listed as Homo sapiens)
chain: MGHHHHHHHHHHSSGGIEGRGGVPGAIPGGVPGGVFYPGAGLGALGGGALGPGGKPLKPVPGGLAGAGLGAGLGAFPAVTFPGALVPGGVADAAAAYKAAKAGAGLGGVPGVGGLGVSAGAVVPQPGAGVKPGKVPGVGLPGVYPGGVLPGARFPGVGVLPGVPTGAGVKPKAPGVGGAFAGIPGVGPFGGPQPGVPLGYPIKAPKLPGGYGLPYTTGKLPYGYGPGGVAGAAGKAGYPTGTGVGPQAAAAAAAKAAAKFGAGAAGVLPGVGGAGVPGVPGAIPGIGGIAGVGTPAAAAAAAAAAKAAKYGAAAGLVPGGPGFGPGVVGVPGAGVPGVGVPGAGIPVVPGAGIPGAAVPGVVSPEAAAKAAAKAAKYGARPGVGVGGIPTYGVGAGGFPGFGVGVGGIPGVAGVPGVGGVPGVGGVPGVGISPEAQAAAAAKAAKYGVGTPAAAAAKAAAKAAQFALLNLAGLVPGVGVAPGVGVAPGVGVAPGVGLAPGVGVAPGVGVAPGVGVAPGIGPGGVAAAAKSAAKVAAKAQLRAAAGLGAGIPGLGVGVGVPGLGVGAGVPGLGVGAGVPGFGAVPGALAAAKAAKYGAAVPGVLGGLGALGGVGIPGGVVGAGPAAAAAAAKAAAKAAQFGLVGAAGLGGLGVGGLGVPGVGGLGGIPPAAAAKAAKYGVAARPGFGLSPIFPGGACLGKACGRKRK
[1]
  level of HuAEC migration relative to comparator: comparable to that of fibronectin
[1]; 200 ng/ml Tropoelastin, 10 μM peptides, BSA control
  migration of HuAECs: promoted endothelial cell migration
[2]
  spreading of adherent cells across the surface of the coated disk: promoted spreading of the adherent cells across the surface of the device; also recorded: well spread cytoplasm and an organized actin cytoskeleton
[3]; 50 μg/ml of tropoelastin
  level of A2058 adhesion relative to fibronectin: similarly to 10 ug/ml of fibronectin
[3]; FIG. 4
  dose dependence of A2058 adhesion: dose dependent
[3]; FIG. 4, coated substrates, peptide 10 μM
  adhesion of A2058 cells in comparison to BSA: adhered
